B1: 324 (protein, listed as Kluyveromyces marxianus)
chain: MSKFDVEQLLSELNQDEKISLLSAVDFWHTKKIERLGIPAVRVSDGPNGIRGTKFFDGVPSGCFPNGTGLASTFDRDLLETAGKLMAKESIAKNAAVILGPTTNMQRGPLGGRGFESFSEDPYLAGMATSSVVKGMQGEGIAATVKHFVCNDLEDQRFSSNSIVSERALREIYLEPFRLAVKHANPVCIMTAYNKVNGEHCSQSKKLLIDILRDEWKWDGMLMSDWFGTYTTAAAIKNGLDIEFPGPTRWRTRALVSHSLNSREQITTEDVDDRVRQVLKMIKFVVDNLEKTGIVENGPESTSNNTKETSDLLRKIAADSIVLLKNKNNILPLKKEDNIIVIGPNAKAKTSSGGGSASMNSYYVVSPYEGIVNKLGKEVDYTVGAYSHKSIGGLAESSLIDAAKPADAENSGLIAKFYSNPVEERSDDEEPFHVTKVNRSNVHLFDFKHEKVDPKNPYFFVTLTGQYVPQEDGDYIFSLQVYGSGLFYLNDELIIDQKHNQERGSFCFGAGTKERTKKLTLKKGQVYNVRVEYGSGPTSGLVGEFGAGGFQAGVIKAIDDDEEIRNAAELAAKHDKAVLIIGLNGEWETEGYDRENMDLPKRTNELVRAVLKANPNTVIVNQSGTPVEFPWLEDANALVQAWYGGNELGNAIADVLYGDVVPNGKLSLSWPFKLQDNPAFLNFKTEFGRVIYGEDIFVGYRYYEKLQRKVAFPFGYGLSYTTFELDISDFKVTDDKIAISVDVKNTGDKFAGSEVVQVYFSALNSKVSRPVKELKGFEKVHLEPGEKKTVNIDLELKDAISYFNEELGKWHVEAGEYLVSVGTSSDDILSVKEFKVEKELYWKGL
B2: 319 (protein)
chain: MTAAPSDKELLALLSQLTTAEKVLLLSGKSTWETPEIERLHVPSLKVSDGPNGARGAQFTDGTTAACFPACVSLAATFNRSLARQIGVALGEETQTKGAYVLLGPTVCPHRSPLGGRNFESFSEDPFLTGELASEYVVGLQSQRVAATVKHFAINEQDTRRFTVNETVSERAMREIYLRPFEIVVKKADPWCIMTSYPKVNGAYVDDQTTFLKDILRDEWKFKGLVMTDWGAASAAIANGIRNGLDLEMPGPPHRRQPAVVHKLIEDGKVDVKDIDDRVLPLLKLLRQTGKFTDRREPVPERAISRPEHEKLIREAGGEGVVLLKNSDGALPLKPSHLQNIAVLGPLAKHAAAHGGGSASLNCHYKISPFDAIKSRLPDSKLSYSKGAHVFRAYPDFVAGTRNRLGNPGFAADFYENLNLTGEPFYTEEYPRGSFMTLMNENVVTAKSARLSTAYSPNVSGKHYLSFSGMGPARLFINGEFQGEIKETAEAMSFLLGVQEERHLQYDFVTGKTYDIVIESTISPNPNAELYLADDQIAVHLGFVSQQEMDADVLSEAVSFAKDADVALIFVGNTPQWETEGQDMATMTLPADGSQDKLIAEVAKVNPNTIVIITTGVPVELPWLENVAAVVQAWYGGQETGNSILDVLLGEVNPSGRLPMSWPKKNEHTACYGHFGLDSWDSREVEYVEGVNVGYRHFDSQYGTEQEVMFPFGYGLSYSTFEHSACALSGTLDANDENAKITVAVTVHNTSDVAGSEVVQVYVTPPKSRTGVERPPKALVAFEKIHLNPGAQKDIQLTFKRDGAAFWSEARKLWEVEAGEHEVHVSTSSSPQDIKSTLVLGITKGFTFHP
modifications: Colletotrichum gloeosporioides
B3: 4 (protein, listed as Microbacterium azadirachtae)
chain: MTLPPFDVDTVLAALTLEEKASLLSGLDDWYTQPLDRPGLPQRVPSIEVGDGPHGLRKETGVDMVWVPATGFPTASAMGASWDRQLMRRVAAAIGEEARAEGVQVVLGPGVNMKRSPLCGRNFEYFSEDPVHSGELGAAYVDGVQAVGVGTSLKHFAANNQEIERTRISVVADERTLRETYLSAFERVVTKADPWTVMCSYNRLLGVHASQNHWLLTEVLRDEWGYRGAVVSDWNAVHDRVAALRAGLDLEMPGTQGATDAEIVAAVQDGQLDIGVVDAAARRVLELVARAYPGADRVNGAVMDLGHAAGDRLTAEQLRLLRAAEHHELAREAAIGSMTLLRNETIPGGGGPALPLEEHSEGAVAVVGAFAEHARVQGGGSSGVDPTRIDAPLAAIRAIANGRVHYAPGYIYEVKNAYQDDNLAILAAHGVVTEEEKPRVARRSATLAKELQLAEAVQHLGKRPLSAAAERLIDEAAVIAGQAETIVVFAGLPLSYEQEANDRDTLALPADQVALILRMADVREKTGARLVVVLSNGSPVTMDPWHDRVDAIVEAWLGGQAVGSAVAEVLFGRSNPSGKLAETFPLALEDTPGFPNWLGERGTVLYGEGVFIGYRWYDALRREVRYPFGHGLSYTTFSYSDLRVDLVDAEVGRVTVTCTVTNTGDVAGQEVVQLYVGDPDAEVQRPLRELRGFEKVKIEAGESTRVRFELLNRDFAYWDSAAVRPDGKTGLWRREGGEFRIEVGASSRDIRLSESIVLSDDPSIPPLVPDAELLDIAASRFVQGHAG
B4: 302 (protein, listed as Rhodococcus sp.)
chain: MTTRPDLTLEQQAALLSGHDFWSTEAIEEAGIPSVVLTDGPHGVRYQSGDSDHLGLHASLPATCFPLAVAVGSSWDRSVAEEVGRAVGREARALGVHVVLGPGVNIKRSPLCGRNFEYYSEDPLLSGVLGAAHVRGLQSVGVGACVKHFAANNQETDRMRVSADVDDRTLREIYLPAFERVVAEARPAAVMCSYNKVNGVSAAENRWLLTEVLREQWGFAGVVVSDWGAVADRVAGVTAGLDLEMPGSGGGTDRQVVDAVRDGRLDPRLVEASAHRVLALSDLVRPAAGDLDLDGQHALARRLAADCAVLLKNADGVLPLRRGQHVAVLGSFATTPRFQGGGSSHIAPTRVDPALDAVRALAAAHGLTVSAADGFPLGADGDARALLDEAVRVAAAADVAVVFAGLTEREESEGFDRDTLDLPPVQVALVRAVARAAPRTVVVLAHGGVVSLEGWHDEVDAILDGWLLGQAGGSAIADLLLGVATPSGHLAETVPLRLEDTPSYLNFPGEQGHVRYGEGVMVGYRGYETLRRAVRYPFGHGLSYTTFVTESLDVALGGDGTVAVRVRVRNAGDRAGKHVVQMYVATDAGPVRRPVRELRAFEKIELAPGEARDVELTLERRAFAYWDVELDDWVVAPGEYAIQVCADAATVLEARTVTLAGDVVSRPLSMESTVGEWFSHPTVGPAFLEVLAGATGSAPTPDPQEHAGLLRMVESIRMAQFLTFLPIPVPQEKLDELLALGGTVANSATDAAAGNRDHPAPTPPGQPGGP

Tests used:
Type in all cases: biochemical, Quillaja saponaria
[1] = Experiment 4-2: screening of glucosidases for deglycosylation with purified QS-18 (1 mg/ml) at pH 6 and 30 deg C; details: pH 6, 30 degC, 18 hrs, clarified lysate, LCMS/MS
Method: Lysates were prepared in an identical manner to Experiment 4-1 above, except the lysis buffer was prepared in 100 mM potassium phosphate buffer pH 6. QS-18 solution was prepared by dissolving QS-18 in 100 mM potassium phosphate buffer pH 6 (2 mg/mL).
12 uL clarified lysate was transferred into fresh 96 well PCR plates. 12 uL QS-18 solution was added (1 mg/ml final concentration), plates sealed and incubated overnight (30° C.) for 18 hrs. After quenching with 25 uL MeCN and shaking for 10 mins (RT), samples were analysed using the LC-MS/MS protocol described in Experiment 4-1 and enzyme activity determined in an analogous manner.

[2] = Experiment 4-4: screening of glucosidases for deglycosylation of QS-18 in crude bark extract (1 in 20 dilution) to QS-21; details: CBE 1 in 20 dilution, pH 6, 25 degC, 18 hours; % conversion of Middle Peak by UV HPLC
Method: Lysates were prepared as in Experiment 4-2.
Crude bark extract (CBE) was adjusted to pH 6 by dropwise addition of 2M NaOH with stirring. 25 uL of clarified lysate was transferred to a reaction plate, 22.5 ul of 100 mM potassium phosphate buffer pH 6 was added, 2.5 ul CBE at pH 6 was added. Reaction plates were sealed, incubated at 25 degC with shaking for 18 hours, then quenched by addition of 50 uL acetonitrile (MeCN). Quenched reaction plates were re-sealed and incubated at 20 degC with shaking for 10 min. The reaction plates were centrifuged (10 min, 4 degC) and analysed by UV HPLC with the method below:
Three key peaks of interest are apparent using this chromatography: Left Peak (retention time approximately 2.30-2.35 min) comprising mainly QS-17 family components; Middle Peak (retention time approximately 2.37-2.42 min) comprising mainly QS-18 family components and desglucosyl-QS-17 family components; and Right Peak (retention time approximately 2.44-2.50 min) comprising mainly QS-21 family components. Peak identity was supported by MS/MS.
Enzyme activity is calculated as the % conversion of the Middle Peak present in the crude bark extract: […]

[3] = Experiment 4-1: screening of glucosidases for deglycosylation with purified QS-18 (0.04 mg/ml) at pH 7.5 and room temperature; details: pH 7.5, room temperature, 20 h, clarified E. coli lysate, QS-18 2150 to QS-21 1988 by LCMS/MS
Method: Nucleotide sequences were sub-cloned into pET24b+ for expression. 10 uL of E. coli cells (One Shot® BL21(DE3) chemically competent E. coli) were transferred to each well of a 96 well PCR plate (prechilled on ice). 10 uL autoclaved water was added to the DNA, resuspended by pipetting, and 1 uL of plasmid DNA (15-30 ng) was transferred to the competent cells. Immediately after addition, the resulting mixture was mixed by pipetting. Cells were heat shocked by placing the plate in a thermal cycler at 42° C. for 30 seconds then transferred directly to an ice bath for 2 min. 100 uL sterile Lysogeny Broth (LB) medium was added to each well containing transformed cells. The content of each plate was transferred into a 96-deep well plate pre-aliquoted with 400 uL LB and the plate was incubated at 37° C. with shaking and 85% humidity for 1 hour. After outgrowth, 500 uL of sterile LB containing 100 ug/mL kanamycin was added to the plates containing cells and plates incubated at 37° C. with shaking overnight (18 hours) with humidity control (85%).
1000 mLs of Overnight Express Media was supplemented with 1 mL kanamycin 50 mg/mL and 20 mL of 50% v/v glycerol added (50 ug/mL kanamycin final and 1% glycerol). 96-Well Assay Block 2 mL plates were aliquoted with 380 uL of media per well. Pre-inoculum (20 uL) from transformation plates was added. The plates were sealed appropriately and incubated at 37° C. at 300 with shaking for 2 h. After 2 h the temperature was lowered to 20° C. and incubation continued for 20 h.
The liquid cultures were centrifuged for 10 minutes at 4° C. The supernatant was discarded, plates blotted on an absorbent material to remove residue and the plates frozen at −80° C.
Lysis buffer was prepared according to the following protocol: • 1. Polymyxin B sulphate (0.5 mg/mL) was suspended in 100 mM potassium phosphate pH 7.5 • 2. The mixture was sonicated until polymyxin B sulphate had dissolved • 3. Lysozyme (1 mg/mL) and benzonase (0.1 uL/mL lysis buffer) were added
2 copies of each cell pellet plate were removed from −80 degC freezer and allowed to thaw. 200 uL of lysis buffer was added to each well of one copy of the cell pellet plates. Plates were shaken at room temperature for 10 mins. 190 uL of cell pellet/lysis buffer was transferred to a corresponding fresh cell pellet plate. These plates were incubated at room temperature with shaking for 2 hours. Lysate was clarified by centrifugation (10 min, 4 degC).
QS-18 was obtained by analogous methods to Example 3, collecting a QS-18 containing phenyl fraction following phenyl treatment (presence of m/z corresponding to key components was confirmed by MS and the phenyl fraction then used without further treatment). QS-18 solution was prepared by diluting aqueous QS-18 (ca 1 mg/mL) with 100 mM potassium phosphate pH 7.5 to 0.2 mg/ml. 40 uL clarified lysate was transferred into fresh 96 well PCR plates. 10 uL QS-18 solution added to each well of lysate to a final concentration of 0.04 mg/ml. Incubated at room temperature with shaking for 20 h. Quenched with 50 uL MeCN and shaken at room temperature for 10 mins. Samples were analysed by LC-MS/MS using a Waters Acquity H class coupled to a Waters Xevo Tandem Quadrupole (TQD) Mass Spectrometer.
Enzyme activity was calculated as: […]
Candidate enzymes with % conversion >0.72%, i.e. >3 S.D. above negative control, were considered to be positive hits and are listed below in Table 7. Sample results are shown in FIG. 10 for a QS-21 standard, FIG. 11 for negative control and FIG. 12 for treatment with the glucosidase of SEQ ID No. 262.

Row | Molecule | Expt 4-2 % conv [1] | Expt 4-4 % conv [2] | Expt 4-1 % conv [3]
1 | B1 | 0.9% | <3% | 13.6%
2 | B2 | 0.4% | <3% | 10.2%
3 | B3 | 0.6% |  | 0.4%
4 | B4 | 2.1% | <3% | 17.2%

From patent publication US20240026407A1, “MODIFICATION OF SAPONINS” (GLAXOSMITHKLINE BIOLOGICALS SA, priority 2020, published 2024)
